US20260248972A1, “DUAL RECEPTOR TARGETING RADIOLIGANDS AND USES THEREOF RELATED APPLICATIONS” (priority 2022, published 2026)
*1 amine or outer side, *2 acyl side, *3 side chain or, on linkers, in order; H or OH if unused. Where a SMILES comes first, the peptide text is derived from it. Bridges are numbered along the chain shown (N, C = ends). Side-chain parts run from the residue outwards. [ ]: non-standard residue; d: D form. The star is where a group is joined. X1 = CC(C)(C)C(=O)CN1C(=O)[C@H](N*)CN(C2CCCCC2)c2ccccc21; DOTA = O=C(O)CN1CCN(CC(=O)O)CCN(CC(=O)*)CCN(CC(=O)O)CC1; 3Abz = Nc1cccc(C(=O)O)c1; CO = O=C([*:1])[*:2]

Key:
SSTR2 = target: T1, SSTR2 (Rattus norvegicus, UniProt P30680); test: Competitive cell-binding assay on AR42J cells with 125I-C1 as competitive ligand; conditions: for Relative Binding Affinity SSTR2: based on mean IC50, C-1 = 1.00
T1 construct: host or cells: AR42J cells
T1 sequence (P30680 whole entry): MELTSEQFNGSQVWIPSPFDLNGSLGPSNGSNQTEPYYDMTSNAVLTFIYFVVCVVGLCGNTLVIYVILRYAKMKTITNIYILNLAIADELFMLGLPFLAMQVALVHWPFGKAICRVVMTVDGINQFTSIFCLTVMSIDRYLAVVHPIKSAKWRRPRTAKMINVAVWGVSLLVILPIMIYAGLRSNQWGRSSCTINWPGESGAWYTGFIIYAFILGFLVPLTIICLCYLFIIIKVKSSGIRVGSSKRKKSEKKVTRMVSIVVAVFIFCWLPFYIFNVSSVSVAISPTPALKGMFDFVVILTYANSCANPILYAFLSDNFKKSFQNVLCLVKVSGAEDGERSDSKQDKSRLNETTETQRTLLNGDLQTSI
Description: AR42J cells (ATCC) were maintained in RPMI-1640 medium (Gibco) supplemented with 15% fetal bovine serum (Gibco) and 1% penicillin-streptomycin (BI) at 37° C. in a humidified incubator with 5% CO2. The culture medium was replaced with fresh medium every 2-3 days. Experiments were performed with cells at 70-80% confluence.
Binding Affinity Tested by Using ^125I-Labeled Competitive Ligands.
The binding affinities of test compounds were determined by a competitive cell-binding assay using ^125I-C1 and ^125I-C3 as the competitive ligand. The suspended AR42J cells at a density of 1~3×10^6 cells/mL in binding buffer (RPMI-1640 medium supplemented with 0.25% bovine serum albumin) were transferred to a MultiScreen-DV Filter Plate (Millipore) with 100 μL per well except the blank group where the binding buffer was used instead. The cells were then incubated with ^125I-C1 and ^125I-C3 (0.02 μCi/well) in the presence of increasing concentrations (0-10000 nM) of test compounds at 37° C. for 1 h (n=3). The final volume in each well was maintained at 200 μL and insufficient volume was adjusted by the binding buffer. After the 1 h incubation, unbound ^125I-competitive ligands were removed by filtration using a Multiscreen vacuum manifold (Millipore) followed by rinses with the binding buffer (3 times). The filters were collected, and their radioactivity were individually measured by γ counter (2480 WIZARD2, PerkinElmer). The best-fit IC50value (inhibitory concentration when 50% of the bound ^125I-C1 and ^125l I-C3 on cells were displaced) of test compounds were calculated by fitting the data with nonlinear regression using GraphPad Prism 8.0.1.

in vivo = conditions: BALB/c nude, mouse, in vivo, iv, total radioactivity
Method in brief: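 Compounds labelled with ^177Lu in 0.5 M NaOAc pH 4.5 at 95° C for 15 min, then used directly or diluted in PBS with 3 mg/mL ascorbate. BALB/c nude mice bore subcutaneous AR42J flank xenografts (0.05-0.50 g). Organs excised at 4, 24 and 72 h post-injection and γ-counted for % ID and % ID/g.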

Relative Binding Affinity SSTR2 (SSTR2)	SMILES	IC50 (SSTR2) [nM]	tissue to tissue ratio at 24 h (in vivo; T/K Tumor/Kidney ratio)	tissue to tissue ratio at 24 h (in vivo; T/L Tumor/Liver ratio)	tissue to tissue ratio at 24 h (in vivo; T/P Tumor/Pancreas ratio)	tissue to tissue ratio at 24 h (in vivo; T/Sp Tumor/Spleen ratio)	tissue to tissue ratio at 24 h (in vivo; T/St Tumor/Stomach ratio)	tissue uptake at 24 h (in vivo; uptake Kidney) [%ID/g]	tissue uptake at 24 h (in vivo; uptake Liver) [%ID/g]	tissue uptake at 24 h (in vivo; uptake Pancreas) [%ID/g]	tissue uptake at 24 h (in vivo; uptake Spleen) [%ID/g]	tissue uptake at 24 h (in vivo; uptake Stomach) [%ID/g]	tissue uptake at 24 h (in vivo; uptake Tumor) [%ID/g]
	C[C@@H](O)[C@H](NC(=O)[C@@H]1CSSC[C@H](NC(=O)[C@@H](Cc2ccccc2)NC(=O)CN2CCN(CC(=O)O)CCN(CC(=O)O)CCN(CC(=O)O)CC2)C(=O)N[C@@H](Cc2ccc(O)cc2)C(=O)N[C@H](Cc2c[nH]c3ccccc23)C(=O)N[C@@H](CCCCN)C(=O)N[C@@H]([C@@H](C)O)C(=O)N1)C(=O)O [Compound C-1, DOTA-f[CYwKTC]T-OH, reference compound]	2.81											
0.51	C[C@@H](O)[C@H](NC(=O)[C@@H]1CSSC[C@H](NC(=O)[C@@H](Cc2ccccc2)NC(=O)COCCOCCNC(=O)[C@H](CCCCNC(=O)[C@H](CCC(=O)O)NC(=O)c2cccc(NC(=O)N[C@@H]3CN(C4CCCCC4)c4ccccc4N(CC(=O)C(C)(C)C)C3=O)c2)NC(=O)CN2CCN(CC(=O)O)CCN(CC(=O)O)CCN(CC(=O)O)CC2)C(=O)N[C@@H](Cc2ccc(O)cc2)C(=O)N[C@H](Cc2c[nH]c3ccccc23)C(=O)N[C@@H](CCCCN)C(=O)N[C@@H]([C@@H](C)O)C(=O)N1)C(=O)O [Compound I-27, DOTA-K(-E-Z360)-OEG-f[CYwKTC]T-OH]		1.4	26	16	64	6.3	21	1.11	1.79	0.44	4.51	28.5
	C[C@@H](O)[C@H](NC(=O)[C@@H]1CSSC[C@H](NC(=O)[C@@H](Cc2ccccc2)NC(=O)CCCCCCCNC(=O)[C@H](CCCCNC(=O)c2cccc(NC(=O)N[C@@H]3CN(C4CCCCC4)c4ccccc4N(CC(=O)C(C)(C)C)C3=O)c2)NC(=O)CN2CCN(CC(=O)O)CCN(CC(=O)O)CCN(CC(=O)O)CC2)C(=O)N[C@@H](Cc2ccc(O)cc2)C(=O)N[C@H](Cc2c[nH]c3ccccc23)C(=O)N[C@@H](CCCCN)C(=O)N[C@@H]([C@@H](C)O)C(=O)N1)C(=O)O [Compound I-61, DOTA-K(Z360)-Aoc-f[CYwKTC]T-OH]		3.5	0.1	16	0.2	4.5	1.53	53.3	0.34	28.3	1.21	5.41
	C[C@@H](O)[C@H](NC(=O)[C@@H]1CSSC[C@H](NC(=O)[C@@H](Cc2ccccc2)NC(=O)[C@H](CCCCNC(=O)c2cccc(NC(=O)N[C@@H]3CN(C4CCCCC4)c4ccccc4N(CC(=O)C(C)(C)C)C3=O)c2)NC(=O)COCCOCCNC(=O)CN2CCN(CC(=O)O)CCN(CC(=O)O)CCN(CC(=O)O)CC2)C(=O)N[C@@H](Cc2ccc(O)cc2)C(=O)N[C@H](Cc2c[nH]c3ccccc23)C(=O)N[C@@H](CCCCN)C(=O)N[C@@H]([C@@H](C)O)C(=O)N1)C(=O)O [Compound I-35, DOTA-OEG-K(Z360)-f[CYwKTC]T-OH]		2.9	3.5	19	38	5.8	6.1	5.06	0.96	0.47	3.09	17.8
2.94	C[C@@H](O)[C@H](NC(=O)[C@@H]1CSSC[C@H](NC(=O)[C@@H](Cc2ccccc2)NC(=O)COCCOCCNC(=O)COCCOCCNC(=O)[C@H](CCCCNC(=O)CC[C@H](NC(=O)CNC(=O)c2cccc(NC(=O)N[C@@H]3CN(C4CCCCC4)c4ccccc4N(CC(=O)C(C)(C)C)C3=O)c2)C(=O)O)NC(=O)CN2CCN(CC(=O)O)CCN(CC(=O)O)CCN(CC(=O)O)CC2)C(=O)N[C@@H](Cc2ccc(O)cc2)C(=O)N[C@H](Cc2c[nH]c3ccccc23)C(=O)N[C@@H](CCCCN)C(=O)N[C@@H]([C@@H](C)O)C(=O)N1)C(=O)O [Compound I-2, DOTA-K(-gE-G-Z360)-OEG-OEG-f[CYwKTC]T-OH]												
	C[C@@H](O)[C@H](NC(=O)[C@@H]1CSSC[C@H](NC(=O)[C@@H](Cc2ccccc2)NC(=O)[C@H](CCCCNC(=O)c2cccc(NC(=O)N[C@@H]3CN(C4CCCCC4)c4ccccc4N(CC(=O)C(C)(C)C)C3=O)c2)NC(=O)CNC(=O)CNC(=O)CN2CCN(CC(=O)O)CCN(CC(=O)O)CCN(CC(=O)O)CC2)C(=O)N[C@@H](Cc2ccc(O)cc2)C(=O)N[C@H](Cc2c[nH]c3ccccc23)C(=O)N[C@@H](CCCCN)C(=O)N[C@@H]([C@@H](C)O)C(=O)N1)C(=O)O [Compound I-49, DOTA-G-G-K(Z360)-f[CYwKTC]T-OH] ({DOTA}-GGK([3Abz-CO-X1])[dF]CY[dW]KTCT-OH; disulfide 5-10)		1.5	1.5	9.8	14	3.2	5.93	5.92	0.92	0.62	2.77	8.97
	C[C@@H](O)[C@H](NC(=O)[C@@H]1CSSC[C@H](NC(=O)[C@@H](Cc2ccccc2)NC(=O)[C@H](CCCCNC(=O)c2cccc(NC(=O)N[C@@H]3CN(C4CCCCC4)c4ccccc4N(CC(=O)C(C)(C)C)C3=O)c2)NC(=O)[C@H](CCCNC(=N)N)NC(=O)CN2CCN(CC(=O)O)CCN(CC(=O)O)CCN(CC(=O)O)CC2)C(=O)N[C@@H](Cc2ccc(O)cc2)C(=O)N[C@H](Cc2c[nH]c3ccccc23)C(=O)N[C@@H](CCCCN)C(=O)N[C@@H]([C@@H](C)O)C(=O)N1)C(=O)O [Compound I-62, DOTA-R-K(Z360)-f[CYwKTC]T-OH] ({DOTA}-RK([3Abz-CO-X1])[dF]CY[dW]KTCT-OH; disulfide 4-9)		0.7	0.3	6.1	13	6.4	14.7	32.4	1.78	0.82	1.68	10.8
	C[C@@H](O)[C@H](NC(=O)[C@@H]1CSSC[C@H](NC(=O)[C@@H](Cc2ccccc2)NC(=O)COCCOCCNC(=O)[C@H](CCCCNC(=O)c2cccc(NC(=O)N[C@@H]3CN(C4CCCCC4)c4ccccc4N(CC(=O)C(C)(C)C)C3=O)c2)NC(=O)COCCOCCNC(=O)CN2CCN(CC(=O)O)CCN(CC(=O)O)CCN(CC(=O)O)CC2)C(=O)N[C@@H](Cc2ccc(O)cc2)C(=O)N[C@H](Cc2c[nH]c3ccccc23)C(=O)N[C@@H](CCCCN)C(=O)N[C@@H]([C@@H](C)O)C(=O)N1)C(=O)O [Compound I-52, DOTA-OEG-K(Z360)-OEG-f[CYwKTC]T-OH]		0.9	2.2	14	36	2.4	14	5.7	0.9	0.3	5.1	12.4
